Test [1] concerns the target recombinant TgGSK3 (amino acids 21-385), C-terminal 6His (Toxoplasma gondii). Briefly: crystal structure; monoclinic crystal at 3.0 A of TgGSK3 (aa 20 to 385) with LY2090314; hanging drops in 5% MPD, 9% PEG 6000, 0.1 M Tris pH 7.5; crystals grew after several weeks; four subunits in the asymmetric unit.
For another test, the target named is T1, TgGSK3 (Toxoplasma gondii, UniProt A0A125YY75).
T1 construct: gene TGGT1_265330; kinase domain, aa 46-385 (orthorhombic crystal) and aa 20/21-385 (monoclinic crystal)
Briefly: X-ray co-crystal structure ([…] Å and […] Å); microscale thermophoresis; Kinase-Glo inhibition (IC50 […]). The class given is binding.

Here are results for 2 compounds from publication PMC12589562, “Structural and functional characterization of TgGSK3, a druggable kinase in Toxoplasma gondii” (Nature Communications, 2025).

One may read the stoichiometry N as a count of units in the complex or per binding partner. For “recombinant TgGSK3 (amino acids 21-385), C-terminal 6His (from UniProt A0A125YY75 21-385) (enzyme)”, in test [1], the stoichiometry N was 2.

Broadly, the Kd is the concentration at which binding is half-saturated. Low readings indicate higher affinity, high ones lower affinity. On to `O=C1NC(=O)C(c2cnc3ccccn23)=C1c1cn2c3c(cc(F)cc13)CN(C(=O)N1CCCCC1)CC2` [compound 209, LY2090314], for which, on TgGSK3, the Kd was found to be 34 nM.
